Test results published in US20130071375.

Columns and labels:
[1] = target: High mobility group box 1 (UniProt P09429)
[2] = target: Thrombomodulin (recombinant) (UniProt P07204)
Sequence of Thrombomodulin (recombinant) (P07204 whole entry, looked up): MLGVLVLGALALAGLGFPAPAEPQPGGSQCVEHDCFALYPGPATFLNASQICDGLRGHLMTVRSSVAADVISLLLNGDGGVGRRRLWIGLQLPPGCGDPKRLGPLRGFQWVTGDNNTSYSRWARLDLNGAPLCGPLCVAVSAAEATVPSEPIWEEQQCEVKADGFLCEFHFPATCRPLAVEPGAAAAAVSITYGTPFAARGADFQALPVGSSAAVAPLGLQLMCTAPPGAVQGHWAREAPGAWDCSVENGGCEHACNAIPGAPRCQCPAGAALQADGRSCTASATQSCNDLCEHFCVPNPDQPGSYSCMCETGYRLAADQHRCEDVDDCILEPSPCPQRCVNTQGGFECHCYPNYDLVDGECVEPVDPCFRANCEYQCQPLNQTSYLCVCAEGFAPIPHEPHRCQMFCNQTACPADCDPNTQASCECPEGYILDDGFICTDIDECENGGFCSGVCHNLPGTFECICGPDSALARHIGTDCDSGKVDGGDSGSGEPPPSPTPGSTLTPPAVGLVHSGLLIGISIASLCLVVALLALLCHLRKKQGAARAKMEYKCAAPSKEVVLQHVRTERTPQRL

Sequence of High mobility group box 1 (P09429 whole entry): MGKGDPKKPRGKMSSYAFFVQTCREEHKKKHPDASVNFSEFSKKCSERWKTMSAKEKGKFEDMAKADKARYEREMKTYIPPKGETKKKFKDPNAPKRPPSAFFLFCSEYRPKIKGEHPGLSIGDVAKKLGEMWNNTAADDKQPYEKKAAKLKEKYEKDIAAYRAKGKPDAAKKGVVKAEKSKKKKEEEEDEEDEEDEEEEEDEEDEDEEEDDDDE

Row | Substance | proteolytic cleavage of HMGB1 (400 nmol/L) by 2 nM protease, SDS-PAGE and immunoblot [1] | acceleration of HMGB1 cleavage by 2 nM PCgla/MeizoTh with 400 nmol/L recombinant TM, SDS-PAGE and immunoblot [2] | proteolytic degradation of HMGB1 by 100 nM APC, with or without soluble EPCR and/or PC/PS/PE vesicles, 2 hours at 37 C [1]
1 | PCgla/meizothrombin (meizothrombin with its Gla-domain replaced by that of protein C; Factor Xa-activated PCgla/prothrombin-3A) | PCgla/MeizoTh can proteolytically cleave HMGB1 | TM can function as a cofactor to markedly accelerate the cleavage reaction | 
2 | Activated protein C |  |  | APC had no direct proteolytic effect on HMGB1 ... did not lead to the degradation of HMGB1 even after 2 hours incubation at 37 °C (data not shown)
